The supplement of paper PMC10567573

B1: TRIM15 (parent)
chain: LSQMGAQSSGKILLCPLCQEEEQA
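Note: lentivirally expressed fusions sorted by FACS into six bins by GFP to DsRed ratio, PSI derived from sequencing read proportions per bin multiplied by bin number.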

Variants of: B1
Assay: protein stability index of a GFP-peptide fusion (GPS, HEK-293T) (PSI 1-6); higher = more stable
Conditions: c terminus: a fixed tail appended
With LSQMGAQSSGKITLCPLCQEEEQA the protein stability index was 4.51.
LSQMGAQSSGKICLCPLCQEEEQA showed a protein stability index of 4.67.
For LSQMGAQSSGKIRLCPLCQEEEQA, the protein stability index was 4.71.
With LSQMGAQSSGKIFLCPLCQEEEQA the protein stability index was 4.09.
Variant LSQMGAQSSGKIYLCPLCQEEEQA has a protein stability index of 4.25.
With LSQMGAQSSGKIILCPLCQEEEQA the protein stability index was 4.08.
Variant LSQMGAQSSGKINLCPLCQEEEQA has a protein stability index of 4.63.
Variant LSQMGAQSSGKIPLCPLCQEEEQA has a protein stability index of 3.97.
Work on LSQMGAQSSGKIMLCPLCQEEEQA yielded a protein stability index of 4.74.
With LSQMGAQSSGKIALCPLCQEEEQA the protein stability index was 4.87.
For LSQMGAQSSGKIKLCPLCQEEEQA, the protein stability index was 4.65.
LSQMGAQSSGKIELCPLCQEEEQA showed a protein stability index of 4.24.
In the case of LSQMGAQSSGKIHLCPLCQEEEQA, the protein stability index is reported as 5.52.
Variant LSQMGAQSSGKIGLCPLCQEEEQA has a protein stability index of 4.65.
Work on LSQMGAQSSGKISLCPLCQEEEQA yielded a protein stability index of 4.5.
Work on LSQMGAQSSGKIQLCPLCQEEEQA yielded a protein stability index of 4.1.
Work on LSQMGAQSSGKIDLCPLCQEEEQA yielded a protein stability index of 4.5.
LSQMGAQSSGKILLCKLCQEEEQA gave a protein stability index of 4.19.
LSQMGAQSSGKILLCRLCQEEEQA showed a protein stability index of 3.39.
LSQMGAQSSGKILLCTLCQEEEQA gave a protein stability index of 3.91.
Variant LSQMGAQSSGKILLCMLCQEEEQA has a protein stability index of 3.98.
LSQMGAQSSGKILLCHLCQEEEQA showed a protein stability index of 3.8.
LSQMGAQSSGKILLCNLCQEEEQA gave a protein stability index of 4.1.
LSQMGAQSSGKILLCDLCQEEEQA showed a protein stability index of 4.05.
For LSQMGAQSSGKILLCQLCQEEEQA, the protein stability index was 4.22.
For LSQMGAQSSGKILLCVLCQEEEQA, the protein stability index was 3.29.
LSQMGAQSSGKILLCWLCQEEEQA showed a protein stability index of 2.9.
LSQMGAQSSGKILLCCLCQEEEQA showed a protein stability index of 2.59.
LSQMGAQSSGKILLCLLCQEEEQA gave a protein stability index of 3.37.
In the case of LSQMGAQSSGKILLCFLCQEEEQA, the protein stability index is reported as 4.36.
With LSQMGAQSSGKILLCYLCQEEEQA the protein stability index was 2.97.
LSQMGAQSSGKILLCALCQEEEQA showed a protein stability index of 2.92.
For LSQMGANSSGKILLCPLCQEEEQA, the protein stability index was 4.07.
Variant LSQMGASSSGKILLCPLCQEEEQA has a protein stability index of 3.77.
LSQMGAYSSGKILLCPLCQEEEQA gave a protein stability index of 3.24.
With LSQMGAMSSGKILLCPLCQEEEQA the protein stability index was 2.99.
In the case of LSQMGAWSSGKILLCPLCQEEEQA, the protein stability index is reported as 3.84.
LSQMGAPSSGKILLCPLCQEEEQA showed a protein stability index of 3.15.
LSQMGARSSGKILLCPLCQEEEQA showed a protein stability index of 3.5.
LSQMGAVSSGKILLCPLCQEEEQA gave a protein stability index of 2.76.
With LSQMGATSSGKILLCPLCQEEEQA the protein stability index was 3.99.
With LSQMGAQSSGKILLDPLCQEEEQA the protein stability index was 5.58.
For LSQMGAQSSGKILLKPLCQEEEQA, the protein stability index was 4.65.
LSQMGAQSSGKILLWPLCQEEEQA gave a protein stability index of 4.47.
With LSQMGAQSSGKILLIPLCQEEEQA the protein stability index was 3.77.
LSQMGAQSSGKILLNPLCQEEEQA gave a protein stability index of 5.22.
In the case of LSQMGAQSSGKILLYPLCQEEEQA, the protein stability index is reported as 4.39.
For LSQMGAQSSGKILLMPLCQEEEQA, the protein stability index was 4.64.
With LSQMGAQSSGKILLGPLCQEEEQA the protein stability index was 5.51.
With LSQMGAQSSGKILLTPLCQEEEQA the protein stability index was 5.05.
LSQMGAQSSGKILLHPLCQEEEQA showed a protein stability index of 4.74.
LSQMGAQSSGKILLQPLCQEEEQA gave a protein stability index of 4.96.
Work on LSQMGAQSSGKILLFPLCQEEEQA yielded a protein stability index of 4.16.
With LSQMGAQSSGKILLRPLCQEEEQA the protein stability index was 4.43.
With LSQMGAQSSGKILLPPLCQEEEQA the protein stability index was 4.96.
LSQMGAQSSGKILLSPLCQEEEQA gave a protein stability index of 4.98.
With LSQMGAQSSGKILLLPLCQEEEQA the protein stability index was 3.9.
In the case of LSQMGAQSSGKILLEPLCQEEEQA, the protein stability index is reported as 5.1.
Work on LSQMGAQSSRKILLCPLCQEEEQA yielded a protein stability index of 3.22.
LSQMGAQSSLKILLCPLCQEEEQA showed a protein stability index of 2.53.
LSQMGAQSSIKILLCPLCQEEEQA gave a protein stability index of 2.5.
LSQMGAQSSNKILLCPLCQEEEQA gave a protein stability index of 4.54.
In the case of LSQMGAQSSHKILLCPLCQEEEQA, the protein stability index is reported as 3.71.
LSQMGAQSSQKILLCPLCQEEEQA showed a protein stability index of 3.58.
For LSQMGAQSSFKILLCPLCQEEEQA, the protein stability index was 2.74.
LSQMGAQSSYKILLCPLCQEEEQA showed a protein stability index of 2.83.
For LSQMGAQSSKKILLCPLCQEEEQA, the protein stability index was 3.71.
Work on LSQMGAQSSSKILLCPLCQEEEQA yielded a protein stability index of 3.79.
Variant LSQMGAQSSVKILLCPLCQEEEQA has a protein stability index of 3.19.
Variant LSQMGAQSSTKILLCPLCQEEEQA has a protein stability index of 3.71.
LSQMGAQSSMKILLCPLCQEEEQA gave a protein stability index of 3.83.
LSQMGAQSSDKILLCPLCQEEEQA showed a protein stability index of 4.3.
Variant LSQMGAQSSEKILLCPLCQEEEQA has a protein stability index of 3.89.
Work on LSQMGAQSSCKILLCPLCQEEEQA yielded a protein stability index of 3.86.
For LSQMGAQSSWKILLCPLCQEEEQA, the protein stability index was 2.55.
Work on LSQMGAQSSPKILLCPLCQEEEQA yielded a protein stability index of 3.78.
With LSQMGAQSMGKILLCPLCQEEEQA the protein stability index was 2.57.
For LSQMGAQSRGKILLCPLCQEEEQA, the protein stability index was 2.99.
Variant LSQMGAQSEGKILLCPLCQEEEQA has a protein stability index of 2.93.
LSQMGAQSHGKILLCPLCQEEEQA showed a protein stability index of 3.71.
With LSQMGAQSDGKILLCPLCQEEEQA the protein stability index was 3.7.
Work on LSQMGAQSGGKILLCPLCQEEEQA yielded a protein stability index of 2.64.
Work on LSQMGAQSLGKILLCPLCQEEEQA yielded a protein stability index of 3.4.
In the case of LSQMGAQSTGKILLCPLCQEEEQA, the protein stability index is reported as 3.8.
Variant LSQMGAQSYGKILLCPLCQEEEQA has a protein stability index of 3.9.
In the case of LSQMGAQSQGKILLCPLCQEEEQA, the protein stability index is reported as 2.65.
In the case of LSQMGAQSCGKILLCPLCQEEEQA, the protein stability index is reported as 3.86.
Work on LSQMGAQSIGKILLCPLCQEEEQA yielded a protein stability index of 3.
For LSQMGAQSKGKILLCPLCQEEEQA, the protein stability index was 3.78.
Variant LSQMGAQSPGKILLCPLCQEEEQA has a protein stability index of 3.49.
For LSQMGAQSFGKILLCPLCQEEEQA, the protein stability index was 2.36.
Work on LSQMGAQSAGKILLCPLCQEEEQA yielded a protein stability index of 3.07.
With LSQMGAQSNGKILLCPLCQEEEQA the protein stability index was 3.
Variant LSQMGAQSWGKILLCPLCQEEEQA has a protein stability index of 2.96.
